The source of these data is patent publication US20260217843A1 (APOGEE THERAPEUTICS, published 2026).

Substitutions are numbered along the chain they refer to.

Experiment [1] concerns the target T1, Recombinant Human OX40L Protein, His Tag (Acro Cat. IL3-H52H4) (human, UniProt P23510 51-183).
T1 construct: Bought His-tagged protein; also called hOX40L
T1 sequence: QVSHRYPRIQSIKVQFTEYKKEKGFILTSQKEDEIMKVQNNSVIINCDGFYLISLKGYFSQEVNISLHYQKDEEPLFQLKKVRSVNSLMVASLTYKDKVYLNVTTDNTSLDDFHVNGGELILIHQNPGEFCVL
The experiment can be described thus: SPR (Biacore 8K), antibody captured, human OX40L injected, 1:1 fit. As to the method: (§1) Samples were injected in a multi-cycle manner over freshly captured mAb, by regenerating the capture surfaces with injection of glycine pH 1.5 for 30 sec at a flow rate of 30 μL/min. The data was processed and analyzed with Biacore Insight Evaluation Software Version 2.0.15.12933 (GE Healthcare) as follows. […] The responses from the two buffer blank injections were then subtracted from the reference subtracted data (2-1) to yield double-referenced data, which were fit to an 1:1 binding model to determine the apparent association (ka) and dissociation rate constants (kd). Their ratio provided the apparent equilibrium dissociation constant or affinity constant (KD=kd/ka).
On the technique in general: SPR reads the build-up and loss of mass on a sensor chip optically.

The target of a further experiment is cynomolgus FcRn (cynomolgus, UniProt Q8SPV9 24-297; Q8SPW0 21-119). The experiment can be described thus: SPR (Biacore 8K+), antibody captured by anti-human kappa, cynomolgus FcRn injected, pH 5.8; pH 5.8. The method, then:
(§2) Briefly, a CM5 Series S sensor chip functionalized with anti-human kappa antibody was used to capture antibodies at 5 μg/mL. […] The chip was regenerated with 10 mM glycine pH 1.5 and 10 mM NaOH between runs.

Experiment [2] deals with T2, Recombinant Cynomolgus OX40L Protein, His Tag (SINO BIOLOGICAL, Cat. 11057-C07H) (cynomolgus, UniProt G7NVH7 51-183).
T2 construct: Bought protein
T2 sequence: T1 sequence with R5Q, K23E
Put plainly: SPR (Biacore 8K), antibody captured, cynomolgus OX40L injected, 1:1 fit. As to the method: as §1

Another experiment addresses human FcRn (human, UniProt P55899 24-297; P61769 21-119). Put plainly: SPR (Biacore 8K+), antibody captured by anti-human kappa, human FcRn injected, pH 5.8; pH 5.8. The method, then: as §2
Another experiment concerns the target T3, biotinylated hOX40L (human, UniProt P23510 51-183, limits assumed, biotinylated (sites not given)).
T3 construct: construct not described
T3 sequence: T1 sequence
Put plainly: blocking ELISA: biotinylated hOX40L preincubated with titrated antibody, added to coated hOX40-Fc, Extravidin-HRP. Background: In an ELISA, binding on a coated surface is turned into a signal by an enzyme label.

Experiment [3] deals with T4, hOX40L added as soluble protein in cell assays (human, UniProt P23510 51-183, limits assumed).
T4 sequence: T1 sequence
Put plainly: cell-based or functional assay.

The target in another experiment is T5, human CD16a 176V (human, UniProt P08637 17-208).
T5 construct: Allelic variant named only as '176V'; numbering not explained
The experiment can be described thus: SPR (Biacore 8K+), antibody captured by anti-human IgG Fc, receptor injected. As to the method:
(§3) Briefly, a CM5 Series S sensor chip functionalized with anti-human IgG Fc antibody was used to capture antibodies at 5 μg/mL. […] The chip was regenerated with 10 mM glycine pH 1.5 and 10 mM NaOH between runs.

The next experiment deals with T6, human CD32b (human, UniProt P31994 46-217).
T6 sequence (looked up): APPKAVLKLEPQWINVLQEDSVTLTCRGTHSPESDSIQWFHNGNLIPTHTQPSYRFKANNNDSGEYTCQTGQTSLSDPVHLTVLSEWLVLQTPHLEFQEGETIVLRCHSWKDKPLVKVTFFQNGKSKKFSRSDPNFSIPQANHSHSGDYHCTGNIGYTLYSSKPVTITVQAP
Described as above. The method, then: as §3

The target in the next experiment is human CD16b (human, UniProt O75015 17-200, limits assumed). The description is as above. As to the method: as §3
Another experiment concerns the target T7, human CD32a 167H (human, UniProt P12318 36-218).
T7 construct: numbering not explained
T7 sequence (looked up): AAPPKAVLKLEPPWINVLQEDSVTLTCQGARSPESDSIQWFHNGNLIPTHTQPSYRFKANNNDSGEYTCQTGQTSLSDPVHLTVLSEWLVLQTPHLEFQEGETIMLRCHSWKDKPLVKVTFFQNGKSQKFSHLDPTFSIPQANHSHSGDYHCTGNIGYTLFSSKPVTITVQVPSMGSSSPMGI
The description is as above. The method, then: as §3

For another experiment, the target named is T8, human CD16a 176F (human, UniProt P08637 17-208).
T8 construct: numbering not explained
Described as above. The method, then: as §3

For another experiment, the target named is human CD64 (human, UniProt P12314 16-288). Described as above. As to the method: as §3
The target in another experiment is T9, human CD32a 167R (human, UniProt P12318 36-218).
T9 construct: numbering not explained
T9 sequence (looked up): T7 sequence (looked up) with H132R
The experiment is described as above. The method, then:
as §3

A further experiment addresses T10, C1q.
T10 construct: also called Clq
The experiment can be described thus: SPR (Biacore 8K+), antibody captured by anti-human IgG Fc, C1q injected at 25 nM, mean response. As to the method: as §3

The target in experiment [4] is T11, hOX40L on hOX40L-expressing CHO cells (human, UniProt P23510 1-183).
T11 construct: also called cell surface OX40L
T11 sequence: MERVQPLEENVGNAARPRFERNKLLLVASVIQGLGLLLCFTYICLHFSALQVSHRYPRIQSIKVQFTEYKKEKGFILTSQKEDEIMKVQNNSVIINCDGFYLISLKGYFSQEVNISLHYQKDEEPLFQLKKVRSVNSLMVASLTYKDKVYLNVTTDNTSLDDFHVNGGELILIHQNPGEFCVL
Put plainly: flow cytometry on hOX40L-expressing CHO cells, gMFI, nonlinear regression. As to the method: Nonlinear regression was performed on geometric mean fluorescence intensity (gMFI) values to determine EC50 values (FIG. 1, TABLE 8).
(In general: Flow cytometry measures light scatter and fluorescence of single cells or particles in a stream.)

The target in experiment [5] is T4, hOX40L added as soluble protein in cell …. Put plainly: cell-based or functional assay. This is another data set of the same source.

Sequence of cynomolgus FcRn (Q8SPV9 24-297 limits assumed, chain 1 of 2): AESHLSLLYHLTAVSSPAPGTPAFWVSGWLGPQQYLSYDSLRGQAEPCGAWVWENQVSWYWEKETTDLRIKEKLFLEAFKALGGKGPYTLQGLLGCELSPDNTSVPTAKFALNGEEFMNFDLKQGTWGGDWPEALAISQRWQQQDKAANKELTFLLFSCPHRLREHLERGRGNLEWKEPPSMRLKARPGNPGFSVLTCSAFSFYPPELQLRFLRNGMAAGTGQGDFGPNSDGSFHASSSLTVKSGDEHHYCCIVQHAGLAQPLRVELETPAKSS
Sequence of cynomolgus FcRn (Q8SPW0 21-119 limits assumed, chain 2 of 2): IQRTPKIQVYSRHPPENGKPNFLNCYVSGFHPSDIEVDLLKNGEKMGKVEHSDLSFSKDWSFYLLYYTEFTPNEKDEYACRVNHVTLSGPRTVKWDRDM
Sequence of human FcRn (P55899 24-297 limits assumed, form in doubt, chain 1 of 2): as the sequence (Q8SPV9 24-297 limits assumed, chain 1 of 2) above, with D39N, Q44E, S99G, G189S, N190S, M217L, T269S counted along it
Sequence of human FcRn (P61769 21-119 limits assumed, form in doubt, chain 2 of 2): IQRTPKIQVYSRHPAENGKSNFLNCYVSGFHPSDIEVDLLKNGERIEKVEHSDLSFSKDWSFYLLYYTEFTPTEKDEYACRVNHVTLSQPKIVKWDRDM
Sequence of human CD16b (O75015 17-200 limits assumed): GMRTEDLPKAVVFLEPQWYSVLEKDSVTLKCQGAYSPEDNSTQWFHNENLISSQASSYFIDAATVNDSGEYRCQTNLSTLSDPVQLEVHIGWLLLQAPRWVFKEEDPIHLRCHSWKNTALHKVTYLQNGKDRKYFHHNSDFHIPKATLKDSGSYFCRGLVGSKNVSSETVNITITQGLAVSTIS
T8 sequence (P08637 17-208 limits assumed): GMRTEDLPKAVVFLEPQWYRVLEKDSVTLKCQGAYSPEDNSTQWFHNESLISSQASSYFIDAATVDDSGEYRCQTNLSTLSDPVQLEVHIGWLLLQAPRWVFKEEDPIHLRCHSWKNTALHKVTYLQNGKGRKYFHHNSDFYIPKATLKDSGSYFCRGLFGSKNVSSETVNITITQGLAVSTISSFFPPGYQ
Sequence of human CD64 (P12314 16-288 limits assumed): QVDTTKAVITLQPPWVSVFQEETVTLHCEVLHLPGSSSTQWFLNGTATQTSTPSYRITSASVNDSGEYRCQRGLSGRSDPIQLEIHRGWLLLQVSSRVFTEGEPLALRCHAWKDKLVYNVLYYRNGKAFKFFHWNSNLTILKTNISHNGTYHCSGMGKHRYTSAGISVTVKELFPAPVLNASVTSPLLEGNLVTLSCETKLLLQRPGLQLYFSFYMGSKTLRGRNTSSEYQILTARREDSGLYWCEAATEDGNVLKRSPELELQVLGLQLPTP
T5 sequence (P08637 17-208 F176V limits assumed): as the sequence (P08637 17-208 limits assumed) above, with F160V counted along it
T10 sequence (P02745 23-245, chain 1 of 3): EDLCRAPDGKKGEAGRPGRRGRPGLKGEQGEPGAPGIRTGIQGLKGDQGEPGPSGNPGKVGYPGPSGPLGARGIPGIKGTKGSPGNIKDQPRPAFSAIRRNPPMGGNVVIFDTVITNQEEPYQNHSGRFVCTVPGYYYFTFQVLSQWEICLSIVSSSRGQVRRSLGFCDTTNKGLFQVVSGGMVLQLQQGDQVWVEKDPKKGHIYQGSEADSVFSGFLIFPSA
T10 sequence (P02746 28-253, chain 2 of 3, further chain): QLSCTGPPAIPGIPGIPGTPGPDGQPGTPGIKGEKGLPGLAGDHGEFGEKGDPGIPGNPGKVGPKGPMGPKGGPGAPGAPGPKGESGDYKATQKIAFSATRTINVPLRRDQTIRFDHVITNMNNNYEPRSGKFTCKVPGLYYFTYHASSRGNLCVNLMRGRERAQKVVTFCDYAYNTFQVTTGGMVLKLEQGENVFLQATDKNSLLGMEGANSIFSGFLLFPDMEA
T10 sequence (P02747 29-245, chain 3 of 3, further chain): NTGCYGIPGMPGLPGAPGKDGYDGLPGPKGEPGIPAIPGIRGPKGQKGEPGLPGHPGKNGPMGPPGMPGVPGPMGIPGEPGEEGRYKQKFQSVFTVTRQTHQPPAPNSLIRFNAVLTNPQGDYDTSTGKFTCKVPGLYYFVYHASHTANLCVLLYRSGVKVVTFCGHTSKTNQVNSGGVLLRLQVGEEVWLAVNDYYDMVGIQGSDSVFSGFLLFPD

B1: anti-hOX40L antibody clone 231 (antibody, human IgG1, kappa, L234A L235A)
heavy: QVQLVQSGTEVKKPGASVKVSCKASGYTFTNYDINWVRQATGQGLEWVGWIHPNTGKTGYAQKFQGRVTMTRDISIGTAYMELNSLRSEDTAVYYCARESYDLWSGHSFNWFDPWGQGTLVTVSSASTKGPSVFPLAPSSKSTSGGTAALGCLVKDYFPEPVTVSWNSGALTSGVHTFPAVLQSSGLYSLSSVVTVPSSSLGTQTYICNVNHKPSNTKVDKKVEPKSCDKTHTCPPCPAPEAAGGPSVFLFPPKPKDTLYITREPEVTCVVVDVSHEDPEVKFNWYVDGVEVHNAKTKPREEQYNSTYRVVSVLTVLHQDWLNGKEYKCKVSNKALPAPIEKTISKAKGQPREPQVYTLPPSRDELTKNQVSLTCLVKGFYPSDIAVEWESNGQPENNYKTTPPVLDSDGSFFLYSKLTVDKSRWQQGNVFSCSVMHEALHNHYTQKSLSLSPG
light: DIQLTQSPSFLSASVGDRVIITCRASQGITSYLAWYQRKPGKAPKLLIYGATTLQSGVPSRFSGSGSGTEFTLTISSLQPEDFATYYCQQLQSYPYTFGQGTKLEIKRTVAAPSVFIFPPSDEQLKSGTASVVCLLNNFYPREAKVQWKVDNALQSGNSQESVTEQDSKDSTYSLSSTLTLSKADYEKHKVYACEVTHQGLSSPVTKSFNRGEC
As a reminder, the Kd is the concentration at which binding is half-saturated. As a reminder, the koff is the first-order rate constant of dissociation. For orientation: kon means a measure of how fast the partners come together. One may read the IC50 as the concentration that gives 50% inhibition. Read a low IC50 as greater potency in that assay. In the case of B1, the dissociation constant Kd is 0.137 nM in experiment [1], 117 nM with cynomolgus FcRn, 0.0714 nM in experiment [2] and 141 nM in the experiment with human FcRn. The koff is 0.00013 s⁻¹ in experiment [1], 0.0465 s⁻¹ with cynomolgus FcRn, 0.000105 s⁻¹ in experiment [2] and 0.0462 s⁻¹ with human FcRn. The kon in experiment [1] was found to be 943000 M⁻¹ s⁻¹; with cynomolgus FcRn, 398000 M⁻¹ s⁻¹; in experiment [2], 1.47e+06 M⁻¹ s⁻¹; in the experiment with human FcRn, 328000 M⁻¹ s⁻¹. Moreover, in the experiment with biotinylated hOX40L, the IC50 worked out at 28.5 nM. Also, the “IC50, luminescence (RLU), hOX40 reporter cells with 50 ng/mL hOX40L” value in experiment [3] came out at 0.909 nM. For the same molecule, the binding result with human CD16a 176V is “no binding (tested: 6 µM)”; with human CD32b it was “no binding (tested: 18 µM)”; in the experiment with human CD16b, “no binding (tested: 10 µM)”; in the experiment with human CD32a 167H it was “no binding (tested: 8 µM)”; in the experiment with human CD16a 176F, “no binding (tested: 6 µM)”; with human CD64, “no binding (tested: 12.5 nM)”. Also, in the experiment with human CD32a 167R, the binding result is on record as “no binding (tested: 8 µM)”. In addition, the “RU at 25 nM C1q” value with C1q stood at 1.8 RU.

B2: anti-hOX40L antibody clone 105 (antibody, human IgG1, kappa, L234A L235A)
heavy: EVRLVESGGGLVQPGGSLRLSCAASGFTFSSYAMTWVRQAPGKGLEWVSLISGSGGLTKYADSVKGRFTISRDNSKKTLYLQMNSLRAEDTAVYYCAKDEGLTTGEYWGQGTLVTVSSASTKGPSVFPLAPSSKSTSGGTAALGCLVKDYFPEPVTVSWNSGALTSGVHTFPAVLQSSGLYSLSSVVTVPSSSLGTQTYICNVNHKPSNTKVDKKVEPKSCDKTHTCPPCPAPEAAGGPSVFLFPPKPKDTLYITREPEVTCVVVDVSHEDPEVKFNWYVDGVEVHNAKTKPREEQYNSTYRVVSVLTVLHQDWLNGKEYKCKVSNKALPAPIEKTISKAKGQPREPQVYTLPPSRDELTKNQVSLTCLVKGFYPSDIAVEWESNGQPENNYKTTPPVLDSDGSFFLYSKLTVDKSRWQQGNVFSCSVMHEALHNHYTQKSLSLSPG
light: DIQMTQSPSSLSASVGDRVTITCRASQGIRNDLGWYQQKPGKAPKRLIYATSSFQSGVPSRFSGSGSGTEFTLTISSLQPEDFATYYCLQHNSYPFTFGPGTKVDVKRTVAAPSVFIFPPSDEQLKSGTASVVCLLNNFYPREAKVQWKVDNALQSGNSQESVTEQDSKDSTYSLSSTLTLSKADYEKHKVYACEVTHQGLSSPVTKSFNRGEC
One may read the EC50 as the midpoint of the concentration-response curve. Consider B2, for which the Kd in [1] turned out to be 0.141 nM; with cynomolgus FcRn it was 121 nM; in experiment [2], 0.0494 nM; with human FcRn, 145 nM. Besides, the koff in [1] was 0.000125 s⁻¹; in the experiment with cynomolgus FcRn it was 0.0453 s⁻¹; in experiment [2], 8.09e-05 s⁻¹; in the experiment with human FcRn, 0.0442 s⁻¹. Also, the kon came out at 886000 M⁻¹ s⁻¹ in experiment [1], 374000 M⁻¹ s⁻¹ in the experiment with cynomolgus FcRn, 1.64e+06 M⁻¹ s⁻¹ in experiment [2] and 306000 M⁻¹ s⁻¹ with human FcRn. The IC50 with biotinylated hOX40L was determined as 1.41 nM. Also, the “IC50, luminescence (RLU), hOX40 reporter cells with 50 ng/mL hOX40L” value in experiment [3] turned out to be 0.852 nM. Besides, the binding result with human CD16a 176V is listed as “no binding (tested: 6 µM)”; with human CD32b, “no binding (tested: 18 µM)”; with human CD16b, “no binding (tested: 10 µM)”; in the experiment with human CD32a 167H, “no binding (tested: 8 µM)”; with human CD16a 176F, “no binding (tested: 6 µM)”; in the experiment with human CD64, “no binding (tested: 12.5 nM)”. Further, in the experiment with human CD32a 167R, the binding result was “no binding (tested: 8 µM)”. Moreover, in experiment [4], the 50% effective concentration (EC50) came out at 3.43 nM. Further, in [5], the “Donor 1 IC50, IL-2 release by pre-activated human CD4+ T cells with 20 ng/ml human OX40L” value stood at 1.37 nM. Further, the “Donor 2 IC50, IL-2 release by pre-activated human CD4+ T cells with 20 ng/ml human OX40L” value in [5] is 1.33 nM. In [5], the “Donor 3 IC50, IL-2 release by pre-activated human CD4+ T cells with 20 ng/ml human OX40L” value turned out to be 1 nM. For the same molecule, the “RU at 25 nM C1q” value with C1q was -3.6 RU.
